Data from PMC12754632, “ZapA uses a two‐pronged mechanism to facilitate Z ring formation in Escherichia coli” (mLife, 2025).
One block for each binder: values may come before it.

Assays:
[1] = target: the molecule itself; test: sedimentation of polymers; FtsZ variants (5 μM) in Pol buffer with 10 mM CaCl2 and 2.5 mM GTP, room temperature, ultracentrifugation at 100,000 rpm for 15 min at 25°C; polymerization of FtsZ with itself
[2] = target: T1, FtsZ^D212N (Escherichia coli, UniProt P0A9A6 1-383, D212N); test: pull-down; H-SUMO-ZapA (6 μM) and FtsZ (2 μM) in Pol buffer (50 mM HEPES-NaOH pH 6.8, 50 mM KCl, 10 mM MgCl2), GTP in the buffers throughout, held on Ni-NTA agarose, washed with 500 mM NaCl and 20 mM imidazole, eluted with 250 mM imidazole; fractions on SDS-PAGE; conditions: both partners purified
T1 construct: also called GTPase mutant (FtsZ^D212N); source: E. coli BL21/pLys, purified (Ni-NTA; His-SUMO tag cleaved with Ulp1); not shown: His-SUMO, N-terminal, cleaved
T1 sequence (looked up): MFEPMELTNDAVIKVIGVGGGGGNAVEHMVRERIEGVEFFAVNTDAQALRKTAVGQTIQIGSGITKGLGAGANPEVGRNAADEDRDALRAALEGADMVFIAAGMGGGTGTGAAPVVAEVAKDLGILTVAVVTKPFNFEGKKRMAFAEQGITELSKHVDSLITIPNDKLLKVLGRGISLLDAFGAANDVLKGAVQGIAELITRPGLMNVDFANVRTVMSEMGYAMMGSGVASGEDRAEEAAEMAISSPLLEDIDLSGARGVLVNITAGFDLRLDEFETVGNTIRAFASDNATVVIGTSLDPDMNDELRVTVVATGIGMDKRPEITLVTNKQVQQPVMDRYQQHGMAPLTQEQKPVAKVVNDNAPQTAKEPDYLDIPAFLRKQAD

[3] = target: T2, wild-type FtsZ (Escherichia coli, UniProt P0A9A6 1-383); test: co-sedimentation; FtsZ or variants (5 μM) with or without equal molar untagged ZapA, 2.5 mM GTP, no Ca2+, room temperature 5 min, ultracentrifugation; pellets and supernatants on SDS-PAGE; 50 mM HEPES pH 6.8, 10 mM MgCl2, 200 mM KCl (legend of Figure 4A); conditions: both partners purified
T2 construct: FtsZ, Escherichia coli; Forms filaments with GTP; GTP was present in the pull-down and the sedimentation assays; source: E. coli BL21/pLys, purified (Ni-NTA; His-SUMO tag cleaved with Ulp1); not shown: His-SUMO, N-terminal, cleaved
T2 sequence (looked up): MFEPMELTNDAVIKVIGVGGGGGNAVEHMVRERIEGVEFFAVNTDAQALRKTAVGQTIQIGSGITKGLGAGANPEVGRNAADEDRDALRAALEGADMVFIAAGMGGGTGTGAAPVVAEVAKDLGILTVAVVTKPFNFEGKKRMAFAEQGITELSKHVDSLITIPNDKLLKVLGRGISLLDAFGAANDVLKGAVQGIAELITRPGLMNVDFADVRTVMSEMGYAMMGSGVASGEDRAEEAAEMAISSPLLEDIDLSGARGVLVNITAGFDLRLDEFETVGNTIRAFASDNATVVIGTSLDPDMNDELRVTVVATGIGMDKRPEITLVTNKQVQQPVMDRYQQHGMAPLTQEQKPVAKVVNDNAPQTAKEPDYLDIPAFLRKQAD

B1: FtsZ^F2A (natural protein, Escherichia coli, UniProt P0A9A6 1-383, looked up)
chain: MAEPMELTNDAVIKVIGVGGGGGNAVEHMVRERIEGVEFFAVNTDAQALRKTAVGQTIQIGSGITKGLGAGANPEVGRNAADEDRDALRAALEGADMVFIAAGMGGGTGTGAAPVVAEVAKDLGILTVAVVTKPFNFEGKKRMAFAEQGITELSKHVDSLITIPNDKLLKVLGRGISLLDAFGAANDVLKGAVQGIAELITRPGLMNVDFADVRTVMSEMGYAMMGSGVASGEDRAEEAAEMAISSPLLEDIDLSGARGVLVNITAGFDLRLDEFETVGNTIRAFASDNATVVIGTSLDPDMNDELRVTVVATGIGMDKRPEITLVTNKQVQQPVMDRYQQHGMAPLTQEQKPVAKVVNDNAPQTAKEPDYLDIPAFLRKQAD
notes: FtsZ, Escherichia coli; source: E. coli BL21/pLys, purified (Ni-NTA; His-SUMO tag cleaved with Ulp1); not shown: His-SUMO, N-terminal, cleaved
binding result [1]: binds

binding result [2]: binds
B2: H-SUMO-ZapA (natural protein, Escherichia coli, UniProt P0ADS2 1-109, looked up)
chain: MSAQPVDIQIFGRSLRVNCPPDQRDALNQAADDLNQRLQDLKERTRVTNTEQLVFIAALNISYELAQEKAKTRDYAASMEQRIRMLQQTIEQALLEQGRITEKTNQNFE
notes: ZapA, Escherichia coli; Held on Ni-NTA agarose by the His tag in the pull-down; source: E. coli BL21 (DE3)/pLys, purified (Ni-NTA); not shown: His, N-terminal, kept; SUMO, N-terminal, kept

binding result [3]: binds
B3: untagged ZapA (natural protein, Escherichia coli, UniProt P0ADS2 1-109, looked up)
chain: MSAQPVDIQIFGRSLRVNCPPDQRDALNQAADDLNQRLQDLKERTRVTNTEQLVFIAALNISYELAQEKAKTRDYAASMEQRIRMLQQTIEQALLEQGRITEKTNQNFE
notes: ZapA, Escherichia coli; source: E. coli BL21 (DE3)/pLys, purified (Ni-NTA; His-SUMO tag cleaved with Ulp1); not shown: His-SUMO, N-terminal, cleaved
